{"source": "patent US11597760", "about": "(dated 2023)", "key": {"cynomolgus C5": {"molecular_target": "T1, cynomolgus C5 (cynomolgus monkey)", "T1 chain": "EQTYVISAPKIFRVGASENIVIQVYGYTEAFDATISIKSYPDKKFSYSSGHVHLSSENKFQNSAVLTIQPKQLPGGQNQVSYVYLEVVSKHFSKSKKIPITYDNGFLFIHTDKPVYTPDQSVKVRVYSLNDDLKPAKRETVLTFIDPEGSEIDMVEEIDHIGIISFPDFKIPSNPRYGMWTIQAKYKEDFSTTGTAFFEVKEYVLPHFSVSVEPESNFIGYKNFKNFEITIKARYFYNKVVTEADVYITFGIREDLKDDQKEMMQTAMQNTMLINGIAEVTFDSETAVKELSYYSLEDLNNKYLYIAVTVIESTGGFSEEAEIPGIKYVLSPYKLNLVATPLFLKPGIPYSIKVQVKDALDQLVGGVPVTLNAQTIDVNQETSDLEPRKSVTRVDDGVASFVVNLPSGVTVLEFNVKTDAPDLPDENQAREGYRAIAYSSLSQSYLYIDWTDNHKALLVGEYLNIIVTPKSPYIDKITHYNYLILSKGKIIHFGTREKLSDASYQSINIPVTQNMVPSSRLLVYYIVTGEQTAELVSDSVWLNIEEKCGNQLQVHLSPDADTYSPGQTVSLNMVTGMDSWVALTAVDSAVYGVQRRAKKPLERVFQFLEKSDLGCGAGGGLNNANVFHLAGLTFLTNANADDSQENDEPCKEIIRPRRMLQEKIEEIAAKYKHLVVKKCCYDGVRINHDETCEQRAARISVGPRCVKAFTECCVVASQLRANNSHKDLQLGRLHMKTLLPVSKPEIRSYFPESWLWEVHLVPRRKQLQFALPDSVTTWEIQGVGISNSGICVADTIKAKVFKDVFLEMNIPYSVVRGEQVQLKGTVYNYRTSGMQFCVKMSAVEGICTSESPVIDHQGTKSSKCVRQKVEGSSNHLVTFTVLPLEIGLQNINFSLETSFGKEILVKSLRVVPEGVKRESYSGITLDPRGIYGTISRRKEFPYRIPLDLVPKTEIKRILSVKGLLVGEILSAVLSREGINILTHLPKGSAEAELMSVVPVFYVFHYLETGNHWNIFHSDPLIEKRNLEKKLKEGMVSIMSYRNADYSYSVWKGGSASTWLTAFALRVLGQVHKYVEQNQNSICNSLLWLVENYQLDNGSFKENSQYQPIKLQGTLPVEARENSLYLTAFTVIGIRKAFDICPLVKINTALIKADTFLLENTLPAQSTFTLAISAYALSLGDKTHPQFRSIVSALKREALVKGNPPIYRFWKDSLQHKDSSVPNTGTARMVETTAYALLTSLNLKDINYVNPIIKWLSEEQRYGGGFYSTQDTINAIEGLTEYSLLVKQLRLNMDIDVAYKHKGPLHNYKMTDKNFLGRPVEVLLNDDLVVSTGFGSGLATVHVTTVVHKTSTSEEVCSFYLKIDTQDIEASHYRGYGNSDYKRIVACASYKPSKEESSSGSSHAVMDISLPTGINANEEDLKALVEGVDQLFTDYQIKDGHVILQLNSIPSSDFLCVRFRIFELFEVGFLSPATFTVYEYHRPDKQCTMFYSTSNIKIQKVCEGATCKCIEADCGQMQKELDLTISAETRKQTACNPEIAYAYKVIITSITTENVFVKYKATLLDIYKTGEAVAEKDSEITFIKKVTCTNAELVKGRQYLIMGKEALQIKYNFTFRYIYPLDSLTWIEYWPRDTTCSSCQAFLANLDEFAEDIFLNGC", "assay": "SPR, pH 7.4, 37C"}, "human C5 [1]": {"molecular_target": "human C5 (human)", "assay": "SPR, pH 7.4, 37C"}, "C5-D51A": {"molecular_target": "C5-D51A (human)", "assay": "other, Western blot"}, "human C5 [2]": {"molecular_target": "human C5 (human)", "assay": "SPR, pH 5.8, 37C"}, "C5-K109A": {"molecular_target": "C5-K109A (human)", "assay": "other, Western blot"}}, "data": [{"binder": "CFA0305 (antibody, V domains shown) VH: QSLEESGGDLVKPGASLAVTCTASGFSSSSSYYMCWVRQAPGKGLEWIGCIYTGSGATYYASWAKGRFTISKTSSTTVTLQMTSLTVADTATYFCASDGGYVTPTHAMYLWGPGTLVTVSS VL: DVVMTQTPASVSAAVGGTVTIKCQASQNIGSDLAWYQQKPGQPPRLLIYGASKLASGVSSRFSGSGSGKEFTLTISDLECADAVTYYCQCTFVGSSYGNAFGGGTEVVVK", "values": [{"measurement": "Kd", "setting": "cynomolgus C5", "result": 5.54, "unit": "nM"}, {"measurement": "Kd", "setting": "human C5 [1]", "result": 15.4, "unit": "nM"}, {"measurement": "binding result", "setting": "C5-D51A", "result": "no binding"}, {"measurement": "Kd", "setting": "human C5 [2]", "result": 430, "unit": "nM"}, {"measurement": "binding result", "setting": "C5-K109A", "result": "no binding"}]}]}
